From paper PMC7320042
Like-named read-outs stand apart in the source and are kept apart here.

What was measured:
[1] = target: recombinant trypsin (UniProt P00761); assay: enzyme inhibition kinetics (Lineweaver-Burk); trypsin (1.35 mg/mL stock) activity on BAEE (0.01-0.075 mM) with and without SKTI or rSKTI (0.63 mg/mL stock); 25 °C, 67 mM phosphate buffer pH 7.6; KI from Vmax/V'max = 1 + [I]/KI
[2] = target: recombinant trypsin (UniProt P00761)
[3] = target: recombinant trypsin (UniProt P00761); assay: enzyme inhibition titration; trypsin (1.35 mg/mL) inhibited by increasing contents of rSKTI; residual activity on BAEE, 67 mM phosphate buffer pH 7.6, 25 °C; ratio worked out from the concentrations of trypsin and rSKTI
[4] = target: recombinant trypsin (UniProt P00761); assay: enzyme inhibition kinetics (Lineweaver-Burk); trypsin (1.35 mg/mL stock) activity on BAEE (0.01-0.075 mM) with and without SKTI or rSKTI (0.63 mg/mL stock); 25 °C, 67 mM phosphate buffer pH 7.6; KI from Vmax/V'max = 1 + [I]/KI; remark: listed apart in the source

Chain of UniProt P00761 (P00761 whole entry): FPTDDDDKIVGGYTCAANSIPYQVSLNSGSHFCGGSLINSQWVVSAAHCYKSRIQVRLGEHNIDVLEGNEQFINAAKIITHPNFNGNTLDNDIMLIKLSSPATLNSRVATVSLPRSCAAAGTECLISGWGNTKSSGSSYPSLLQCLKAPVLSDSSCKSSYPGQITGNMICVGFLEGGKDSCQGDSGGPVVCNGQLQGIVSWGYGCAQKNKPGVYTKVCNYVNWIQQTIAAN

| Binder | Ki [1] | inhibition of trypsin (1.35 mg/mL) activity on BAEE by increasing rSKTI: IC50, the amount of rSKTI when half trypsin activity was inhibited; activity completely inhibited at 1.5 mg/mL rSKTI [2] | stoichiometry N [3] | Ki [4] |
| --- | --- | --- | --- | --- |
| recombinant soybean Kunitz trypsin inhibitor (natural protein) DFVLDNEGNPLENGGTYYILSDITAFGGIRAAPTGNERCPLTVVQSRNELDKGIGTIISSPYRIRFIAEGHPLSLKFDSFAVIMLCVGIPTEWSVVEDLPEGPAVKIGENKDAMDGWFRLERVSDDEFNNYKLVFCPQQAEDDKCGDIGISIDHDDGTRRLVVSKNKPLVVQFQKLDKESL | 2.29 µM | 500 µg/mL | 1 | 2.2 µM |
| natural soybean Kunitz trypsin inhibitor (natural protein) DFVLDNEGNPLENGGTYYILSDITAFGGIRAAPTGNERCPLTVVQSRNELDKGIGTIISSPYRIRFIAEGHPLSLKFDSFAVIMLCVGIPTEWSVVEDLPEGPAVKIGENKDAMDGWFRLERVSDDEFNNYKLVFCPQQAEDDKCGDIGISIDHDDGTRRLVVSKNKPLVVQFQKLDKESL | – | – | – | 1.67 µM |
